In patent publication US20220143148A1, “COMPOSITIONS AND METHODS FOR MODULATING CGRP SIGNALING TO REGULATE INTESTINAL INNATE LYMPHOID CELLS” (The Broad Institute, Inc., priority 2019, published 2022):

Test system: small intestinal immune cells
Assay: Droplet-based scRNA-seq of small intestinal immune cells (LP and PP), OVA vs PBS, clustering and differential expression
Type: in vivo, mouse
Conditions: cluster ID 5, PP
Text: To comprehensively characterize small intestinal immune cells, Applicants generated scRNA-Seq profiles for 58,067 immune cells collected from lamina propria (LP) and Peyer's patch (PP) regions at steady state and after induction of a type 2 inflammatory reaction to ovalbumin (OVA) (Brandt et al., 2003) (FIGS. 1A and 8A). To ensure sufficient representation of rare cells, Applicants combined a normalization strategy—removing by flow sorting either a portion of IgD+ naïve B cells, which are the most abundant cell type in PPs, or all CD19+ and CD3+ T cells (FIG. 8B, Methods)—with profiling of a sufficiently large number of cells number (P>0.99 to recover at least 15 cells from each cluster, Methods) by massively parallel scRNA-seq (Haber et al., 2017) (Methods). Applicants obtained 36,797 and 21,270 high quality cells passing initial filtering (Methods) from PP and LP regions, respectively.
Overall, Applicants annotated 27 cell subsets across the two compartments, spanning T cells, B cells, ILCs, dendritic cells (DCs), myeloid cells and stromal cells, in frequencies ranging from 0.07% to 14%. Briefly, Applicants first partitioned the cells from the PP regions by unsupervised clustering (Methods) into 46 clusters, retained the 97% of cells that were robustly assigned cell identities in each cluster (Methods), assigned the cells from the LP regions to the 46 clusters using a classifier (Methods), and visualized the data with scvis (Ding et al., 2018), a deep generative model-based method (FIGS. 1B and 8C, Methods). Next, Applicants identified genes that were differentially expressed between the cells in each cluster and the remaining cells (Table 1, Methods), as well as between pairs of clusters (Table 2), to elucidate identities of similar cell types/states. Applicants excluded from downstream analysis clusters mostly consisting of contaminants from epithelium, likely doublets, or cells with a small number of Unique Molecular Identifiers (UMIs) (FIGS. 1C and 8D), or lacking distinct markers (Methods). Altogether, Applicants retained 27 clusters spanning 85% of the cells and each associated with distinct marker genes (FIG. 8E, Methods).
To induce allergic reaction to OVA, 6 to 7 weeks old mice were sensitized twice, two weeks apart, with 50 μg of OVA plus 1 mg of aluminum potassium sulfate adjuvant via intraperitoneal injection. Two weeks later, mice were orally administered with 50 mg of OVA on every other day for a total of five times. 1 μg of α-CGRP peptide was administered simultaneously when indicated. Mice were deprived of food for 3-4 hours in cages with wood chip bedding for limiting antigen degradation in the stomach before each intragastric challenge.
Isolation of cells from Peyer's patches (PPs). Peyer's patches (PPs) were carefully dissected from the small intestine under a stereo microscope using a fine scissor, pierced once with a fine forcep. Tissues were digested in freshly made digestion buffer (RPMI-1640 containing 100 μg/ml Liberase™ and 50 μg/ml DNase I at 37° C. on a roto-mixer. After 15 min, tissues were very gently mixed using a 1 ml pipette. The supernatant was collected and added to ice-cold MACS buffer (pH 7.4; PBS plus 2% FCS and 2 mM EDTA). Pre-warmed (37° C.) fresh digestion buffer was added to the remaining tissues. After rotation at 37° C. for 15 min, the mixture was vigorously mixed using a 1 ml pipette for 1 min. Supernatants from the two steps were combined and passed through 70 μm filters and stained for FACS (below).
Isolation of cells from the lamina propria (LP). The small intestines were opened longitudinally and washed in ice-cold PBS. For scRNA-seq, roughly 0.5 cm of fragments from each of the distal, middle and proximal regions without visible PPs were collected. Epithelial cells were dissociated by tissue rotation in pre-warmed (37° C.) PBS containing 10 mM EDTA at 37° C. for 15 min, followed by additional incubation on ice for 15 min. Tissues were then shaken vigorously. […]

B1: OVA (protein, UniProt P01012 2-386, looked up)
Ovalbumin: GSIGAASMEFCFDVFKELKVHHANENIFYCPIAIMSALAMVYLGAKDSTRTQINKVVRFDKLPGFGDSIEAQCGTSVNVHSSLRDILNQITKPNDVYSFSLASRLYAEERYPILPEYLQCVKELYRGGLEPINFQTAADQARELINSWVESQTNGIIRNVLQPSSVDSQTAMVLVNAIVFKGLWEKAFKDEDTQAMPFRVTEQESKPVQMMYQIGLFRVASMASEKMKILELPFASGTMSMLVLLPDEVSGLEQLESIINFEKLTEWTSSNVMEERKIKVYLPRMKMEEKYNLTSVLMAMGITDVFSSSANLSGISSAESLKISQAVHAAHAEINEAGREVVGSAEAGVDAASVSEEFRADHPFLFCIKHIATNAVLFFGRCVSP
In the case of B1, the “Calm1: percentage of expressing cells in OVA-treated group” value is reported as 0.868, the “Cd74: percentage of expressing cells in OVA-treated group” value is reported as 0.501 and the “Crlf3: percentage of expressing cells in OVA-treated group” value is reported as 0.569. The “Ctsc: percentage of expressing cells in OVA-treated group” value was 0.268, the “Ddit4: percentage of expressing cells in OVA-treated group” value was 0.369 and the “Dnaja1: percentage of expressing cells in OVA-treated group” value was 0.591. The “Dnajb1: percentage of expressing cells in OVA-treated group” value was 0.206, the “Dusp1: percentage of expressing cells in OVA-treated group” value was 0.206 and the “DynIl1: percentage of expressing cells in OVA-treated group” value was 0.7. The “Gramd3: percentage of expressing cells in OVA-treated group” value was 0.475, the “Hspa8: percentage of expressing cells in OVA-treated group” value was 0.977 and the “Ier2: percentage of expressing cells in OVA-treated group” value was 0.428. For the same molecule, the “Ifngr1: percentage of expressing cells in OVA-treated group” value was 0.563, the “Igha: percentage of expressing cells in OVA-treated group” value was 0.197 and the “Il7r: percentage of expressing cells in OVA-treated group” value was 0.48. The “Ilk: percentage of expressing cells in OVA-treated group” value was 0.2, the “Jund: percentage of expressing cells in OVA-treated group” value was 0.654 and the “Klf6: percentage of expressing cells in OVA-treated group” value was 0.368. For the same molecule, the “Klhl6: percentage of expressing cells in OVA-treated group” value was 0.332, the “Lfng: percentage of expressing cells in OVA-treated group” value was 0.333 and the “Ltb: percentage of expressing cells in OVA-treated group” value was 0.865. The “Pdcd4: percentage of expressing cells in OVA-treated group” value was 0.66, the “Pik3ip1: percentage of expressing cells in OVA-treated group” value was 0.556 and the “Ppp1r15a: percentage of expressing cells in OVA-treated group” value was 0.219. The “Ppp2ca: percentage of expressing cells in OVA-treated group” value was 0.277, the “Ppp3cc: percentage of expressing cells in OVA-treated group” value was 0.152 and the “Racgap1: percentage of expressing cells in OVA-treated group” value was 0.21. The “Rnaset2a: percentage of expressing cells in OVA-treated group” value was 0.709, the “Sfpq: percentage of expressing cells in OVA-treated group” value was 0.284 and the “Slc9a3r1: percentage of expressing cells in OVA-treated group” value was 0.428. For the same molecule, the “Tdrp: percentage of expressing cells in OVA-treated group” value was 0.228, the “Tpm3: percentage of expressing cells in OVA-treated group” value was 0.665 and the “Tsc22d3: percentage of expressing cells in OVA-treated group” value was 0.84. For the same molecule, the “Tuba1a: percentage of expressing cells in OVA-treated group” value was 0.302, the “Txnip: percentage of expressing cells in OVA-treated group” value was 0.605 and the “Uba52: percentage of expressing cells in OVA-treated group” value was 0.984. For the same molecule, the “Ucp2: percentage of expressing cells in OVA-treated group” value was 0.773, the “Wdr89: percentage of expressing cells in OVA-treated group” value was 0.996 and the “Zfp36l2: percentage of expressing cells in OVA-treated group” value was 0.617. For the same molecule, the “1810037l17Rik: LN (average fold change)” value (OVA vs PBS) was −0.158, the “Bcl2: LN (average fold change)” value (OVA vs PBS) was 0.658 and the “Calm1: LN (average fold change)” value (OVA vs PBS) was −0.192. For the same molecule, the “Cd74: LN (average fold change)” value (OVA vs PBS) was −0.211, the “Crlf3: LN (average fold change)” value (OVA vs PBS) was 0.370 and the “Ctsc: LN (average fold change)” value (OVA vs PBS) was 0.402. The “Ddit4: LN (average fold change)” value (OVA vs PBS) was 0.426, the “Dnaja1: LN (average fold change)” value (OVA vs PBS) was −0.416 and the “Dnajb1: LN (average fold change)” value (OVA vs PBS) was −0.867. For the same molecule, the “Dusp1: LN (average fold change)” value (OVA vs PBS) was −0.321, the “DynIl1: LN (average fold change)” value (OVA vs PBS) was −0.370 and the “Gramd3: LN (average fold change)” value (OVA vs PBS) was 0.481. For the same molecule, the “Hspa8: LN (average fold change)” value (OVA vs PBS) was −0.255, the “Ier2: LN (average fold change)” value (OVA vs PBS) was −0.174 and the “Ifngr1: LN (average fold change)” value (OVA vs PBS) was 0.536. For the same molecule, the “Igha: LN (average fold change)” value (OVA vs PBS) was 0.503, the “Il7r: LN (average fold change)” value (OVA vs PBS) was 0.612 and the “Ilk: LN (average fold change)” value (OVA vs PBS) was 0.159. For the same molecule, the “Jund: LN (average fold change)” value (OVA vs PBS) was −0.319, the “Klf6: LN (average fold change)” value (OVA vs PBS) was −0.374 and the “Klhl6: LN (average fold change)” value (OVA vs PBS) was 0.485. The “Lfng: LN (average fold change)” value (OVA vs PBS) was −0.281, the “Ltb: LN (average fold change)” value (OVA vs PBS) was −0.238 and the “Pdcd4: LN (average fold change)” value (OVA vs PBS) was 0.394. The “Pik3ip1: LN (average fold change)” value (OVA vs PBS) was 0.361, the “Ppp1r15a: LN (average fold change)” value (OVA vs PBS) was −0.287 and the “Ppp2ca: LN (average fold change)” value (OVA vs PBS) was −0.469. For the same molecule, the “Ppp3cc: LN (average fold change)” value (OVA vs PBS) was 0.621, the “Racgap1: LN (average fold change)” value (OVA vs PBS) was 0.436 and the “Rnaset2a: LN (average fold change)” value (OVA vs PBS) was 0.225. For the same molecule, the “Sfpq: LN (average fold change)” value (OVA vs PBS) was −0.373, the “Slc9a3r1: LN (average fold change)” value (OVA vs PBS) was −0.256 and the “Tdrp: LN (average fold change)” value (OVA vs PBS) was −0.354. The “Tpm3: LN (average fold change)” value (OVA vs PBS) was 0.282, the “Tsc22d3: LN (average fold change)” value (OVA vs PBS) was 0.772 and the “Tuba1a: LN (average fold change)” value (OVA vs PBS) was −0.250.
